# Data published in patent US11780912 (dated 2023).
# B1: H89/L16 (antibody, V domains shown)
# VH: QVQLVESGGGLVQPGGSLRLSCAASGFTFSDYYLSWVRQAPGKGLEWVGLIRNKANGYTREYSASVKGRFTISRDDSKNSLYLQMSSLKTEDTAVYYCARENHRYDVELAYWGQGTLVTVSS
# VL: DIQMTQSPSSLSASVGDRVTITCRASEIIYSYLAWYQQKPGKAPKLLIYNAKTHADGVPSRFSGSGSGTDFTFTISSLQPEDIATYYCQHHFGFPRTFGQGTKVEIKR
# B2: Hr9/L16 (antibody, V domains shown)
# VH: QVQLVESGGGLVQPGGSLRLSCAASGFTFSDYYLSWVRQAPGKGLEWVGLIRNKANGYTREYSASVKGRFTISRDDSKNSLYLQMSSLKTEDTAVYYCARENYRYDVELAYWGQGTLVTVSS
# VL: DIQMTQSPSSLSASVGDRVTITCRASEIIYSYLAWYQQKPGKAPKLLIYNAKTHADGVPSRFSGSGSGTDFTFTISSLQPEDIATYYCQHHFGFPRTFGQGTKVEIKR
# B3: H1009/L395 (antibody, V domains shown)
# VH: QVQLVESGGGLVQPGGSLRLSCAASGFTFSDYYLSWVRQAPGKGLEWVGLIRNKDNYHTPEYSASVKGRFTISRDDSKNSLYLTMSDLKTEDTAVYYCARENHRYDVELAYWGQGTLVTVSS
# VL: DIQMTQSPSSLSASVGDRVTITCRASEIIYSYLAWYQQKPGKAPKLLIYKAKTHADGVPSRFSGSGSGTDFTFTISSLQPEDIATYYCKHHFGFPRTFGQGTKVEIKR
# B4: H89/L118 (antibody, V domains shown)
# VH: QVQLVESGGGLVQPGGSLRLSCAASGFTFSDYYLSWVRQAPGKGLEWVGLIRNKANGYTREYSASVKGRFTISRDDSKNSLYLQMSSLKTEDTAVYYCARENHRYDVELAYWGQGTLVTVSS
# VL: DIQMTQSPSSLSASVGDRVTITCRASEIIYSYLAWYQQKPGKAPKLLIYHAKTHADGVPSRFSGSGSGTDFTFTISSLQPEDIATYYCKHHFGFPRTFGQGTKVEIKR
# Assays:
# [1] = biological target: human IL-8 (human); assay: SPR, pH 5.8, 37C
# Chain of human IL-8 (human) (chain, as listed by the source): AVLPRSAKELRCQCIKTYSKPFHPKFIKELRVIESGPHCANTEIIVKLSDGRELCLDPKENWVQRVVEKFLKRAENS
# [2] = biological target: human IL-8 (human); assay: SPR, pH 7.4, 37C
# [3] = biological target: human IL-8 (human); assay: SPR, pH 5.8
# [4] = biological target: human IL-8 (human); assay: SPR, pH 7.4
# [5] = biological target: human IL-8 (human); assay: SPR, pH 5.8, 37C; remark: listed apart in the source
# [6] = biological target: human IL-8 (human); assay: SPR, pH 7.4; remark: listed apart in the source
# [7] = biological target: human IL-8 (human); assay: SPR, pH 5.8; remark: listed apart in the source
Binder,Kd [1],Kd [2],Kd [3],Kd [4],Kd [5],Kd [6],Kd [7]
B1,35.1 nM,0.699 nM,–,–,–,–,–
B2,5.04 nM,0.108 nM,–,–,–,–,–
B3,–,–,87 nM,0.071 nM,–,–,–
B4,21.5 nM,–,49 nM,0.17 nM,31.8 nM,0.172 nM,48.8 nM
